This note sets out measurements from the Human Domainome abundance scans (Beltran et al. 2025).

± gives the uncertainty stated by the source.

To fix the notation:
B1: Double-stranded RNA-specific adenosine deaminase, residues 296 to 358; numbered along this chain, P55265 (parent)
chain: MAEIKEKICDYLFNVSDSSALNLAKNIGLTKARDINAVLIDMERQGDVYRQGTTPPIWHLTDK

The data set covers variants of B1. Nature of the data set: abundance fitness (aPCA) (normalised: wild type 0, dead -1); higher = more abundant; growth selection in yeast, the domain comes from the species named. To be noted: Homo sapiens.
As for MAEIKEWICDYLFNVSDSSALNLAKNIGLTKARDINAVLIDMERQGDVYRQGTTPPIWHLTDK [K7W], the abundance fitness is -0.471 ± 0.27.
As to MAEIKELICDYLFNVSDSSALNLAKNIGLTKARDINAVLIDMERQGDVYRQGTTPPIWHLTDK [K7L], the abundance fitness was -0.402 ± 0.067.
For the variant MAEIKERICDYLFNVSDSSALNLAKNIGLTKARDINAVLIDMERQGDVYRQGTTPPIWHLTDK [K7R], the abundance fitness is -0.266 ± 0.062.
Consider MAEIKEMICDYLFNVSDSSALNLAKNIGLTKARDINAVLIDMERQGDVYRQGTTPPIWHLTDK [K7M], for which the abundance fitness is -0.055 ± 0.15.
In the case of MAEIKEVICDYLFNVSDSSALNLAKNIGLTKARDINAVLIDMERQGDVYRQGTTPPIWHLTDK [K7V], the abundance fitness is -0.641 ± 0.092.
With MAEIKEDICDYLFNVSDSSALNLAKNIGLTKARDINAVLIDMERQGDVYRQGTTPPIWHLTDK [K7D], the abundance fitness was -0.533 ± 0.14.
The value for MAEIKEPICDYLFNVSDSSALNLAKNIGLTKARDINAVLIDMERQGDVYRQGTTPPIWHLTDK [K7P] was -0.906 ± 0.27; that for MAEIKEYICDYLFNVSDSSALNLAKNIGLTKARDINAVLIDMERQGDVYRQGTTPPIWHLTDK [K7Y] was -0.796 ± 0.085.
As to MAEIKEKICYYLFNVSDSSALNLAKNIGLTKARDINAVLIDMERQGDVYRQGTTPPIWHLTDK [D10Y], the abundance fitness is -0.453 ± 0.17.
On to MAEIKEKICIYLFNVSDSSALNLAKNIGLTKARDINAVLIDMERQGDVYRQGTTPPIWHLTDK [D10I], for which the abundance fitness was -0.502 ± 0.16.
In the case of MAEIKEKICNYLFNVSDSSALNLAKNIGLTKARDINAVLIDMERQGDVYRQGTTPPIWHLTDK [D10N], the abundance fitness amounted to 0.085 ± 0.077.
Take MAEIKEKICSYLFNVSDSSALNLAKNIGLTKARDINAVLIDMERQGDVYRQGTTPPIWHLTDK [D10S]: the abundance fitness amounted to 0.05 ± 0.045.
Regarding MAEIKEKICAYLFNVSDSSALNLAKNIGLTKARDINAVLIDMERQGDVYRQGTTPPIWHLTDK [D10A], the abundance fitness was -0.021 ± 0.041.
In the case of MAEIKEKICMYLFNVSDSSALNLAKNIGLTKARDINAVLIDMERQGDVYRQGTTPPIWHLTDK [D10M], the abundance fitness is -0.44 ± 0.074.
The result for MAEIKEKICWYLFNVSDSSALNLAKNIGLTKARDINAVLIDMERQGDVYRQGTTPPIWHLTDK [D10W] reads -0.297 ± 0.073; that for MAEIKEKICGYLFNVSDSSALNLAKNIGLTKARDINAVLIDMERQGDVYRQGTTPPIWHLTDK [D10G], -0.514 ± 0.073.
As for MAEIKEKICTYLFNVSDSSALNLAKNIGLTKARDINAVLIDMERQGDVYRQGTTPPIWHLTDK [D10T], the abundance fitness was -0.157 ± 0.053.
As for MAEIKEKICHYLFNVSDSSALNLAKNIGLTKARDINAVLIDMERQGDVYRQGTTPPIWHLTDK [D10H], the abundance fitness is 0.011 ± 0.1.
With MAEIKEKICQYLFNVSDSSALNLAKNIGLTKARDINAVLIDMERQGDVYRQGTTPPIWHLTDK [D10Q], the abundance fitness is 0.051 ± 0.058.
For the variant MAEIKEKICRYLFNVSDSSALNLAKNIGLTKARDINAVLIDMERQGDVYRQGTTPPIWHLTDK [D10R], the abundance fitness amounted to 0.051 ± 0.04.
The result for MAEIKEKICFYLFNVSDSSALNLAKNIGLTKARDINAVLIDMERQGDVYRQGTTPPIWHLTDK [D10F] reads -0.653 ± 0.17; that for MAEIKEKICLYLFNVSDSSALNLAKNIGLTKARDINAVLIDMERQGDVYRQGTTPPIWHLTDK [D10L], -0.568 ± 0.053.
The value for MAEIKEKICEYLFNVSDSSALNLAKNIGLTKARDINAVLIDMERQGDVYRQGTTPPIWHLTDK [D10E] was 0 ± 0.075; that for MAEIYEKICDYLFNVSDSSALNLAKNIGLTKARDINAVLIDMERQGDVYRQGTTPPIWHLTDK [K5Y] was -0.79 ± 0.11; that for MAEIWEKICDYLFNVSDSSALNLAKNIGLTKARDINAVLIDMERQGDVYRQGTTPPIWHLTDK [K5W] was -0.465 ± 0.077.
The value for MAEIVEKICDYLFNVSDSSALNLAKNIGLTKARDINAVLIDMERQGDVYRQGTTPPIWHLTDK [K5V] was -0.652 ± 0.073; that for MAEIKEKIKDYLFNVSDSSALNLAKNIGLTKARDINAVLIDMERQGDVYRQGTTPPIWHLTDK [C9K] was 0.278 ± 0.052; that for MAEIKEKIQDYLFNVSDSSALNLAKNIGLTKARDINAVLIDMERQGDVYRQGTTPPIWHLTDK [C9Q] was -0.105 ± 0.075.
MAEIKEKIEDYLFNVSDSSALNLAKNIGLTKARDINAVLIDMERQGDVYRQGTTPPIWHLTDK [C9E]: the abundance fitness was 0.002 ± 0.053.
The result for MAEIKEKIADYLFNVSDSSALNLAKNIGLTKARDINAVLIDMERQGDVYRQGTTPPIWHLTDK [C9A] reads -0.143 ± 0.05.
For MAEIKEKIFDYLFNVSDSSALNLAKNIGLTKARDINAVLIDMERQGDVYRQGTTPPIWHLTDK [C9F], the abundance fitness came to 0.086 ± 0.11.
MAEIKEKIVDYLFNVSDSSALNLAKNIGLTKARDINAVLIDMERQGDVYRQGTTPPIWHLTDK [C9V]: the abundance fitness is 0.217 ± 0.052.
On to MAEIKEKIIDYLFNVSDSSALNLAKNIGLTKARDINAVLIDMERQGDVYRQGTTPPIWHLTDK [C9I], for which the abundance fitness came to 0.338 ± 0.085.
Consider MAEIKEKIHDYLFNVSDSSALNLAKNIGLTKARDINAVLIDMERQGDVYRQGTTPPIWHLTDK [C9H], for which the abundance fitness was -0.125 ± 0.12.
Consider MAEIKEKIGDYLFNVSDSSALNLAKNIGLTKARDINAVLIDMERQGDVYRQGTTPPIWHLTDK [C9G], for which the abundance fitness is -0.389 ± 0.036.
In the case of MAEIKEKITDYLFNVSDSSALNLAKNIGLTKARDINAVLIDMERQGDVYRQGTTPPIWHLTDK [C9T], the abundance fitness is 0.119 ± 0.054.
MAEIKEKILDYLFNVSDSSALNLAKNIGLTKARDINAVLIDMERQGDVYRQGTTPPIWHLTDK [C9L]: the abundance fitness was found to be 0.168 ± 0.046.
On to MAEIKEKIMDYLFNVSDSSALNLAKNIGLTKARDINAVLIDMERQGDVYRQGTTPPIWHLTDK [C9M], for which the abundance fitness is 0.042 ± 0.062.
The value for MAEIKEKIDDYLFNVSDSSALNLAKNIGLTKARDINAVLIDMERQGDVYRQGTTPPIWHLTDK [C9D] was -0.678 ± 0.14; that for MAEIKEKIRDYLFNVSDSSALNLAKNIGLTKARDINAVLIDMERQGDVYRQGTTPPIWHLTDK [C9R] was 0.233 ± 0.037.
In the case of MAEIKEKIWDYLFNVSDSSALNLAKNIGLTKARDINAVLIDMERQGDVYRQGTTPPIWHLTDK [C9W], the abundance fitness is -0.018 ± 0.055.
Turning to MAEIKEKINDYLFNVSDSSALNLAKNIGLTKARDINAVLIDMERQGDVYRQGTTPPIWHLTDK [C9N], the abundance fitness came to 0.077 ± 0.12.
The result for MAEIKEKIYDYLFNVSDSSALNLAKNIGLTKARDINAVLIDMERQGDVYRQGTTPPIWHLTDK [C9Y] reads 0.09 ± 0.077.
